This test deals with lambda repressor cI comprising a TEV protease cleavage site (ENLYFQ(G/S)) within the interdomain linker (UniProt P03034). Put plainly: cell-based or functional assay.

TEV protease (wild type), sequence (P04517 2038-2279): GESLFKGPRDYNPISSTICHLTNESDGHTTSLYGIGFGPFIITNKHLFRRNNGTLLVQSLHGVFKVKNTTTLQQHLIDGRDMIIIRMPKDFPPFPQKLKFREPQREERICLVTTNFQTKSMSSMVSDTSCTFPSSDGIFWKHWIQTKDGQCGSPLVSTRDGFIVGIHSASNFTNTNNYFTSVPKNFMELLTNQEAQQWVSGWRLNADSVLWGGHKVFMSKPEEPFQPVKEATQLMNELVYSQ

Substance “TEV protease (wild type) (from UniProt P04517 2038-2279) (enzyme)” gave a gene expression from the pR promoter driving pIII and luciferase greater than 100 fold.

(Values after patent US20170009224A1.)
